Test results as given in patent US20130196406A1, “NOVEL PROTEIN-POLYMER NANOCAPSULES” (University of Connecticut, priority 2012, published 2013).
Where “and” joins values, the source holds several entries; their conditions need not be identical. Identical values can stand only once.

System: T1, COc1ccccc1O
T1 construct: peroxidase-like activity with guaiacol/H2O2
Test: Peroxidase-like activity, Michaelis-Menten kinetics (guaiacol oxidation by H2O2, 470 nm), unmodified Hb
Type: biochemical, bovine
Details: other: Hb, 1 μM Hb, 2.5 mM guaiacol
Method: FIG. 5 provides Lineweaver-Burk plots for the peroxidase-like activity of Hb-PAA conjugates. A) Peroxidase-like activity for the 1 μM of Hb-PAA synthesized at pH 6.0. B) Peroxidase-like activity for 1 μM Hb-PAA synthesized at pH 7.0. All experiments were done in the presence of 1 μM Hb, 2.5 mM guaiacol and 1 mM H2O2.
Polyacrylic acid (PAA) (8000 Da) was purchased from sigma chemical Co (St. Louis, Mo.). The PAA stock solution was made by mixing 1.32 gm of 45% (w/w) PAA in 3 ml of 20 mM Na2HPO4 buffer, pH 7.2, and was further used for synthesis. Met-hemoglobin (Hb, bovine) was purchased from Sigma. Protein solutions were prepared in the respective buffers used for synthesis and the concentrations determined from the Soret absorbance of Hb using extinction co-efficient 303,956 M^−1 cm^−1 at 407 nm.
Hb activity was monitored by the addition of guaiacol (substrate) and hydrogen peroxide (oxidant), and formation of the colored product has been monitored by its absorption at 470 nm as a function of time (FIG. 4). […]
Hb activity was followed by literature method, with minor modifications. Product absorbance at 470 nm was monitored as a function time of after the addition of H2O2 (1 mM) to Hb (5 μM) and o-methoxyphenol (2.5 mM). Initial rates and Michaelis-Menten parameters were calculated from the kinetic data by following standard protocols. […]

Chain of Met-hemoglobin (Hb, bovine), unmodified (Bos taurus) (chain, as listed by the source): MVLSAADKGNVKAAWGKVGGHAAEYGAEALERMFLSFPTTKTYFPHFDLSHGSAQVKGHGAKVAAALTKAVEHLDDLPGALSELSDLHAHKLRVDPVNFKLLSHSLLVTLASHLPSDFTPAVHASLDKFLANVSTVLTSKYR
Chain of Met-hemoglobin (Hb, bovine), unmodified (Bos taurus) (chain, as listed by the source): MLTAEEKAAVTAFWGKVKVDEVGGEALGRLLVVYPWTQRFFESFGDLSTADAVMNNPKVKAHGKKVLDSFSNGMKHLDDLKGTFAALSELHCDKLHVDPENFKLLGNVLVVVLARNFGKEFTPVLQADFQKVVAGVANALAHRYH

For “Met-hemoglobin (Hb, bovine), unmodified (Bos taurus)”, the Km (1 mM H2O2) was 500 µM and 507 µM and the Vmax (1 mM H2O2, 120.0 °C) was 0.0026 mM/s and 0.0021 mM/s.
